The target in assay [1] is T1, cynomolgus CD137 on cells (cynomolgus macaque, UniProt A9YYE7 24-254).
T1 construct: whole, on cells; also called CHO-K1/cynomolgus CD137; cynomolgus monkey CD137
Put plainly: flow cytometry, cynomolgus CD8 T cells gated from CD3-stimulated PBMC, normalized MFI, 2 pooled experiments. As to the method:
Isolation and stimulation of cynomolgus PBMC: Cynomolgus PBMC were isolated from 20 mL of cynomolgus monkey blood from 3 different donors, obtained from Silabe, France by density gradient centrifugation using Lympholyte-mammal (Cedarlane labs) according to manufacturer's instructions. Non-tissue treated 96 well plates were pre-coated overnight at 4° C. with 3 μg/mL α-monkey CD3, clone FN-18 (Invitrogen #APS0301). The cynomolgus PBMC were then stimulated identically as the human PBMC described above
(§1) FACS staining and analysis of CD8 T cells: Following 48 h of incubation with or without CD3, human and cynomolgus PBMC were harvested, pooled, recounted and diluted in FACS buffer (PBS+0.5% BSA, 0.05% NaN₃) to a concentration of 5×10⁶ cells/mL. 50 μL (0.25×10⁶ cells) of cell solution was added to a 96-well FACS staining plate (Falcon #351190). […] Cells were analysed for ALG.APV-210 binding using flow cytometry by gating on viable, single cells expressing CD3 and CD8. MFI values (FMO subtracted) from 2 independent experiments as well as normalized pooled data from 2 experiments and EC₅₀-values were determined and plotted using GraphPad Prism 7, non-linear regression log (agonist) vs. normalized response-variable slope, n=6 donors/group.
In general terms: Flow cytometry measures light scatter and fluorescence of single cells or particles in a stream.

Assay [2] addresses T2, human 5T4 on cells (human, UniProt Q13641 32-420).
T2 construct: Human 5T4 on transfected cells (CHO-K1, CT26, B16) or endogenous on human tumour lines; the cell line is named under assay; also called trophoblast glycoprotein; TPBG
T2 sequence: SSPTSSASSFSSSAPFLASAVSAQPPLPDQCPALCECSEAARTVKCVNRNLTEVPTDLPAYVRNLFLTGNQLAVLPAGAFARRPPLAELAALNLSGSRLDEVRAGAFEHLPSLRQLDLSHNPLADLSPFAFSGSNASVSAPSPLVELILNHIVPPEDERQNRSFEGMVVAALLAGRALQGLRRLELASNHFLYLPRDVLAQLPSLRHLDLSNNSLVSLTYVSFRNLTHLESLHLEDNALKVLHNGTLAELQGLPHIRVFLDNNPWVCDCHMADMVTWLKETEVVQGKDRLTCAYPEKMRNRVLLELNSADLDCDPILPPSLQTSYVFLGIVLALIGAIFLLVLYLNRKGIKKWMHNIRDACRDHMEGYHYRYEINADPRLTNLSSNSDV
The experiment in a line: flow cytometry, HCT-116 cells, streptavidin-PE, normalized MFI of 2 pooled experiments. As to the method:
(§2) FACS staining and analysis of 5T4-expressing cell lines: Prior to the FACS staining, all cell lines were characterized for their 5T4 expression levels using a receptor density kit (Quantum Simply Cellular, anti-human IgG, Bangs Laboratories, Inc). Adherent cell lines were cultured according to their supplier's instructions and were harvested from their cell culture flasks using Trypsin/EDTA, counted in R10 medium in a Burker chamber, and diluted in FACS buffer (PBS+0.5% BSA, 0.05% NaN₃) to a concentration of 4×10⁶ cells/mL. 50 μL (0.20×10⁶) of cell solution was added to a 96-well FACS staining plate (Falcon #351190). Cells were incubated for 20 min in 4° C. with 50 μL of the biotinylated ALG.APV-210 (2× final concentration). The antibodies were added in a serial dilution starting at 20 μg/mL titrating down in a 12 step 1/2 dilution down to 0.010 μg/mL. […] Cells were analysed for ALG.APV-210 binding using flow cytometry (FACSVerse) by gating on single cells. MFI values (secondary antibody only subtracted) from 1 out of 2 independent experiments, as well as normalized data and EC₅₀-values of pooled data from 2 experiments were determined and plotted using GraphPad Prism 7, non-linear regression log (agonist) vs. normalized response-variable slope.

The target in assay [3] is T2, human 5T4 on cells. Put plainly: flow cytometry, B16-hu5T4 cells, streptavidin-PE, normalized MFI of 2 pooled experiments. As to the method: as §2
The next assay deals with T3, human CD137 on cells (human, UniProt Q07011 24-255).
T3 construct: Human CD137 on CHO-K1 transfectants, Jurkat/CD137 reporter cells or CD3-stimulated primary human CD8 T cells; cells named under assay; also called 4-1BB; TNFRSF9
T3 sequence (Q07011 24-255 limits assumed): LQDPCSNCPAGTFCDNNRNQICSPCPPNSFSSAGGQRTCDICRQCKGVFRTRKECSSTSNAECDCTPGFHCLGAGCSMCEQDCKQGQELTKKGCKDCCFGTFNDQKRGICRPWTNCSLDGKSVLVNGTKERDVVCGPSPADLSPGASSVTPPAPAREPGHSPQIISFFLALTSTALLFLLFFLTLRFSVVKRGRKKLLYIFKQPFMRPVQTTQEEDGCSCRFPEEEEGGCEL
Put plainly: flow cytometry, human CD8 T cells gated from CD3-stimulated PBMC, normalized MFI, 2 pooled experiments. As to the method:
as §1, with “#351190). Following 10 min of Fc-blocking in RT using Beriglobin (hIgG, 200 μg/mL), cells were washed in FACS buffer and then incubated for 1 h in 4° C. with 100 μL of the biotinylated ALG.APV-210 or negative control. The antibodies were added in a serial dilution starting either at 5 μg/mL titrating down in a 12 step 1/3 dilution down to 0.0003 μg/mL (exp 1) or 1 μg/mL titrating down in a 12 step 1/2 dilution down to 0.0005 μg/mL (exp 2).” for “#351190).”

Assay [4] has as its target T2, human 5T4 on cells. Put plainly: flow cytometry, BxPC-3 cells, streptavidin-PE, normalized MFI of 2 pooled experiments. As to the method:
as §2

For assay [5], the target named is T4, CD137 / 4-1BB (soluble antigen, form not stated) (UniProt Q07011 24-186, limits assumed).
T4 construct: also called biotinylated 4-1BB antigen; CD137 in ELISA
The experiment in a line: ELISA.

T1 sequence (A9YYE7 entry or part of it): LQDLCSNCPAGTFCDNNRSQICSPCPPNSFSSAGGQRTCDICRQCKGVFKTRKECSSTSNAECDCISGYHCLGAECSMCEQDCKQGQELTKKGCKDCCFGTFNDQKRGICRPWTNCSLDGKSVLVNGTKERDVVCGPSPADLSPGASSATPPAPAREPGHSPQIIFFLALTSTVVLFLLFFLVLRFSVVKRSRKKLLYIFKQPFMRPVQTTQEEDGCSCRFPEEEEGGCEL

B1: biotinylated ALG.APV-210 (bispecific antibody)
chain: EVQLLESGGGLVQPGGSLRLSCAASGFTFSHGSMYWVRQAPGKGLEWVSSISSGSGSTYYADSVKGRFTISHDNSKNTLYLQMNSLRAEDTAVYYCARSSYYGSYYSIDYWGQGTLVTVSSGGGGSGGGGSGGGGSGGGGSDIQMTQSPSSLSASVGDRVTITCRASQSISSYLNWYQQKPGKAPKLLIYAASSLQSGVPSRFSGSGSGTDFTLTISSLQPEDFATYYCQQYYDNLPTFGQGTKLEIKEPKSSDKTHTCPPCPAPEAAGAPSVFLFPPKPKDTLMISRTPEVTCVVVDVSHEDPEVKFNWYVDGVEVHNAKTKPREEQYNSTYRVVSVLTVLHQDWLNGKEYKCAVSNKALPAPIEKTISKAKGQPREPQVYTLPPSRDELTKNQVSLTCLVKGFYPSDIAVEWESNGQPENNYKTTPPVLDSDGSFFLYSKLTVDKSRWQQGNVFSCSVMHEALHNHYTQKSLSLSPGSGGGGSGGGGSGGGGSPSEVQLLESGGGLVQPGGSLRLSCAASGFTFSSYAMSWVRQAPGKCLEWVSAISGSGGSTYYADSVKGRFTISRDNSKNTLYLQMNSLRAEDTAVYYCARYYGGYYSAWMDYWGQGTLVTVSSGGGGSGGGGSGGGGSGGGGSDIQMTQSPSSLSASVGDRVTITCRASQSISSFLNWYQQKPGKAPKLLIYAASSLQSGVPSRFSGSGSGTDFTLTISSLQPEDSATYYCQQTYGYLHTFGCGTKLEIKR
modifications: biotinylated (sites not given)
As usually defined, the EC50 is the midpoint of the concentration-response curve. As to B1, the EC50 amounted to 0.236 nM in assay [1]; 16 nM with human 5T4 on cells [2]; 14 nM with human 5T4 on cells [3]; 0.235 nM in the assay with human CD137 on cells; 20 nM with human 5T4 on cells [4]; 0.6 nM in assay [5].
